Assay results as given in patent publication US20080063651A1 (published 2008).

Biological target: T1, Recombinant human TNF-α (human, UniProt P01375 77-233)
T1 construct: also called tumor necrosis factor-α; biotinylated TNF-α
Assay: 35S-labelled free protein with biotinylated TNF-α, biotin capture membrane, phosphorimaging

T1 sequence (P01375 77-233 limits assumed): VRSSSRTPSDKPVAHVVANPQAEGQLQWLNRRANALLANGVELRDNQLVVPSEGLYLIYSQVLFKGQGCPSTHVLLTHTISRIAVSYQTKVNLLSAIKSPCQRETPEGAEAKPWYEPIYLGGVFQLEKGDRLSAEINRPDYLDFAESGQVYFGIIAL

Kd [µM] | Binder
0.004 | clone T09.12 (designed binder) VSDVPRDLEVVAATPTSLLISWRPTSNPPRYYRITYGETGGNSPVQEFTVPPWASTATISGLKPGVDYTITVYAVTAQTGHHLHDKPISINYRT
20 | clone M12.04 (designed binder) VSDVPGDLEVVAATPTSLLIGWSMTPNWPRYYRIAYGETGGDSPVQEFTVPPWASIAIIGGLKPGVDYTITVYAVTHRDTPISINYRT
